Experiment in all cases: ELISA
In general terms: ELISA stands for enzyme-linked immunosorbent assay.

For data set [1], the target named is T1, Spike S2 (SARS-CoV-2, UniProt P0DTC2 686-1213).
The target in data set [2] is T1, Spike S2. This is another data set of the same source.
The target in data set [3] is Spike S1-His (SARS-CoV-2, UniProt P0DTC2 14-685).
For data set [4], the target named is Nucleocapsid-His (SARS-CoV-2, UniProt P0DTC9 1-419).

Where two headings read alike, the source gives them in different places.

B1: RBD-Ap-1 (structured_DNA)
DNA: CAGCACCGACCTTGTGCTTTGGGAGTGCTGGTCCAAGGGCGTTAATGGACA
On to B1, for which, in data set [1], the binding result is recorded as “no binding”.

B2: N-Ap (structured_DNA)
DNA: GCTGGATGTCACCGGATTGTCGGACATCGGATTGTCTGAGTCATATGACACATCCAGC
As for B2, the binding result in data set [2] and in data set [3] was “no binding” each time.
On to CGCAGCACCCAAGAACAAGGACTGCTTAGGATTGCGATAGGTTCGG (structured_DNA) [RBD-Ap-2], for which the binding result in data set [1] and in data set [4] was “no binding” each time.

Values taken from paper PMC9238363.
